One experiment has as its target HIV-1 Env gp41 (HIV-1). The experiment is described as follows: Luminex bead assay.
Experiment [1] addresses A244gD+ gp120 (herpes simplex virus; HIV-1). Description: SPR.
Experiment [2] has as its target HV00043 (63521 TC21 140C) (HIV-1). Description: SPR. A general note: In SPR one partner is held on a chip, and binding of the other changes the refractive index at the surface.
In experiment [3] the target is HV00044 (6240 TZ5 140C) (HIV-1). Description: SPR.
The target in experiment [4] is Env of HIV-1 7165.18.N160K (HIV-1). The experiment is described as follows: cell-based or functional assay.
The target in experiment [5] is Env of HIV-1 JRCSF.N160K (HIV-1) (UniProt P20871). Description: cell-based or functional assay.
Experiment [6] addresses Env of HIV-1 JRFL.E168K (HIV-1). Description: cell-based or functional assay.
Experiment [7] has as its target Env of HIV-1 JRFL.N160K.E168K (HIV-1). Description: cell-based or functional assay.
For experiment [8], the target named is Env of HIV-1 Q23.17.N160K (HIV-1). Description: cell-based or functional assay.
Experiment [9] addresses Env of HIV-1 clade A isolate Q23.17 (HIV-1). Description: cell-based or functional assay.
Experiment [10] concerns the target Env of HIV-1 clade B isolate 7165.18 (HIV-1). The experiment is described as follows: cell-based or functional assay.
Experiment [11] concerns the target Env of HIV-1 clade B isolate JR-CSF (HIV-1) (UniProt P20871). Description: cell-based or functional assay.
Experiment [12] concerns the target Env of HIV-1 clade B isolate JRFL (virus) (HIV-1). The experiment is described as follows: cell-based or functional assay.
In a further experiment the target is HCV E2 (HCV). The experiment is described as follows: Luminex assay, antibody 50 µg/ml.
For experiment [13], the target named is Influenza HA (Wisconsin) (influenza virus). The experiment is described as follows: Luminex assay, antibody 50 µg/ml.
Experiment [14] addresses Histone autoantigen. The experiment is described as follows: Athena assay, mAb 50 ug/ml; positive >50.
For experiment [15], the target named is Jo 1 autoantigen. The experiment is described as follows: Athena assay, mAb 50 ug/ml; positive >50.
Experiment [16] addresses RNP autoantigen. The experiment is described as follows: Athena assay, mAb 50 ug/ml; positive >50.
The target in experiment [17] is SSA autoantigen. Description: Athena assay, mAb 50 ug/ml; positive >50.
For experiment [18], the target named is SSB autoantigen. The experiment is described as follows: Athena assay, mAb 50 ug/ml; positive >50.
In experiment [19] the target is Scl 70 autoantigen. Description: Athena assay, mAb 50 ug/ml; positive >50.
Experiment [20] deals with Sm autoantigen. Description: Athena assay, mAb 50 ug/ml; positive >50.
For experiment [21], the target named is centromere B autoantigen. The experiment is described as follows: Athena assay, mAb 50 ug/ml; positive >50.
Experiment [22] deals with Histone autoantigen. The experiment is described as follows: Athena assay, mAb 12.5 ug/ml; positive >50.
For experiment [23], the target named is Jo 1 autoantigen. The experiment is described as follows: Athena assay, mAb 12.5 ug/ml; positive >50.
In experiment [24] the target is RNP autoantigen. The experiment is described as follows: Athena assay, mAb 12.5 ug/ml; positive >50.
The target in experiment [25] is SSA autoantigen. Description: Athena assay, mAb 12.5 ug/ml; positive >50.
The target in experiment [26] is SSB autoantigen. Description: Athena assay, mAb 12.5 ug/ml; positive >50.
Experiment [27] deals with Scl 70 autoantigen. Description: Athena assay, mAb 12.5 ug/ml; positive >50.
In experiment [28] the target is Sm autoantigen. The experiment is described as follows: Athena assay, mAb 12.5 ug/ml; positive >50.
Experiment [29] deals with centromere B autoantigen. The experiment is described as follows: Athena assay, mAb 12.5 ug/ml; positive >50.
For experiment [30], the target named is Histone autoantigen. Description: Athena assay, mAb 6.25 ug/ml; positive >50.
In experiment [31] the target is Jo 1 autoantigen. The experiment is described as follows: Athena assay, mAb 6.25 ug/ml; positive >50.
The target of experiment [32] is RNP autoantigen. Description: Athena assay, mAb 6.25 ug/ml; positive >50.
The target in experiment [33] is SSA autoantigen. The experiment is described as follows: Athena assay, mAb 6.25 ug/ml; positive >50.
For experiment [34], the target named is SSB autoantigen. Description: Athena assay, mAb 6.25 ug/ml; positive >50.
For experiment [35], the target named is Scl 70 autoantigen. The experiment is described as follows: Athena assay, mAb 6.25 ug/ml; positive >50.
Experiment [36] deals with Sm autoantigen. The experiment is described as follows: Athena assay, mAb 6.25 ug/ml; positive >50.
The target of experiment [37] is centromere B autoantigen. Description: Athena assay, mAb 6.25 ug/ml; positive >50.
The target of experiment [38] is Histone autoantigen. The experiment is described as follows: Athena assay, mAb 25 ug/ml; positive >50.
Experiment [39] addresses Jo 1 autoantigen. The experiment is described as follows: Athena assay, mAb 25 ug/ml; positive >50.
Experiment [40] has as its target RNP autoantigen. The experiment is described as follows: Athena assay, mAb 25 ug/ml; positive >50.
For experiment [41], the target named is SSA autoantigen. Description: Athena assay, mAb 25 ug/ml; positive >50.
For experiment [42], the target named is SSB autoantigen. Description: Athena assay, mAb 25 ug/ml; positive >50.
The target of experiment [43] is Scl 70 autoantigen. The experiment is described as follows: Athena assay, mAb 25 ug/ml; positive >50.
Experiment [44] has as its target Sm autoantigen. The experiment is described as follows: Athena assay, mAb 25 ug/ml; positive >50.
Experiment [45] addresses centromere B autoantigen. Description: Athena assay, mAb 25 ug/ml; positive >50.
The target of experiment [46] is gp120 (Table 2, strain not given) (HIV-1). The experiment is described as follows: Luminex bead assay.

In the experiment with HIV-1 Env gp41 (HIV-1), 17b original CCR5 binding site antibody showed a Reactivity in Luminex Units (Luminex Units) of 1430.

A word on the Kd: it is the concentration at which binding is half-saturated. Read a high Kd as weaker binding. As for PG16 (antibody), the dissociation constant (Kd) was found to be 450 nM in [1], 160 nM in [2] and 110 nM in experiment [3]. Also, the IC50 ug/ml (virus neutralization) is more than 50 µg/mL in experiment [4]; more than 50 µg/mL in experiment [5]; 0.003 µg/mL in experiment [6]; more than 50 µg/mL in experiment [7]; more than 50 µg/mL in [8]; 0.001 µg/mL in [9]. Besides, the results for the IC50 ug/ml (virus neutralization) in experiment [10], in experiment [11] and in [12] were 11.8 µg/mL, 0.003 µg/mL and more than 50 µg/mL, respectively. In addition, the IC80 ug/ml (virus neutralization) in experiment [4] was more than 50 µg/mL; in experiment [5] it was more than 50 µg/mL; in [6] it was 0.015 µg/mL; in [7] it was more than 50 µg/mL; in [8] it was more than 50 µg/mL; in experiment [9], 0.003 µg/mL. Also, the IC80 ug/ml (virus neutralization) in experiment [10] is more than 50 µg/mL; in experiment [11], 0.012 µg/mL; in experiment [12], more than 50 µg/mL. Besides, the background substracted RFUs (with HCV E2 (HCV); in [13]) was 0 RFU throughout. In addition, the Autoreactivity (Athena) came to 2 with Histone autoantigen [14]; 0 in the experiment with Jo 1 autoantigen [15]; 2 with RNP autoantigen [16]; 4 with SSA autoantigen [17]; 2 with SSB autoantigen [18]; 1 with Scl 70 autoantigen [19]. Besides, the Autoreactivity (Athena) worked out at 0 with Sm autoantigen [20]; 3 with centromere B autoantigen [21]; 8 with Histone autoantigen [22]; 1 in the experiment with Jo 1 autoantigen [23]; 3 in the experiment with RNP autoantigen [24]; 4 in the experiment with SSA autoantigen [25]. The Autoreactivity (Athena) with SSB autoantigen [26] was determined as 4; with Scl 70 autoantigen [27] it was 1; with Sm autoantigen [28] it was 2; with centromere B autoantigen [29] it was 4; with Histone autoantigen [30], 8; in the experiment with Jo 1 autoantigen [31], 2. The Autoreactivity (Athena) with RNP autoantigen [32] turned out to be 2; with SSA autoantigen [33] it was 5; with SSB autoantigen [34] it was 5; with Scl 70 autoantigen [35], 2; with Sm autoantigen [36], 2; in the experiment with centromere B autoantigen [37], 5.

With PG9 (antibody), the Kd in experiment [1] came to 4.8 nM; in experiment [2], 0.75 nM; in [3], 210 nM. Besides, the IC50 ug/ml (virus neutralization) is more than 50 µg/mL in experiment [4]; more than 50 µg/mL in experiment [5]; 0.008 µg/mL in experiment [6]; more than 50 µg/mL in experiment [7]; more than 50 µg/mL in experiment [8]; 0.002 µg/mL in experiment [9]. Besides, the IC50 ug/ml (virus neutralization) was more than 50 µg/mL in experiment [10], 0.003 µg/mL in [11] and more than 50 µg/mL in [12]. Moreover, the IC80 ug/ml (virus neutralization) in experiment [4] is more than 50 µg/mL; in experiment [5], more than 50 µg/mL; in [6] it was 0.055 µg/mL; in experiment [7], more than 50 µg/mL; in experiment [8], more than 50 µg/mL; in [9], 0.005 µg/mL. The IC80 ug/ml (virus neutralization) in experiment [10] is more than 50 µg/mL; in experiment [11], 0.008 µg/mL; in [12] it was more than 50 µg/mL. Further, the background substracted RFUs (with HCV E2 (HCV); in experiment [13]) was 0 RFU throughout. The Autoreactivity (Athena) was found to be 9 in the experiment with Histone autoantigen [38]; 2 with Jo 1 autoantigen [39]; 2 in the experiment with RNP autoantigen [40]; 5 with SSA autoantigen [41]; 6 with SSB autoantigen [42]; 1 with Scl 70 autoantigen [43]. Moreover, the Autoreactivity (Athena) in the experiment with Sm autoantigen [44] is 3; with centromere B autoantigen [45], 5; with Histone autoantigen [14], 7; in the experiment with Jo 1 autoantigen [15] it was 1; with RNP autoantigen [16], 3; with SSA autoantigen [17], 5. The Autoreactivity (Athena) turned out to be 5 with SSB autoantigen [18]; 2 in the experiment with Scl 70 autoantigen [19]; 2 in the experiment with Sm autoantigen [20]; 5 with centromere B autoantigen [21]; 6 in the experiment with Histone autoantigen [22]; 2 with Jo 1 autoantigen [23]. Also, the Autoreactivity (Athena) was 2 with RNP autoantigen [24]; 5 with SSA autoantigen [25]; 4 with SSB autoantigen [26]; 2 with Scl 70 autoantigen [27]; 3 with Sm autoantigen [28]; 4 with centromere B autoantigen [29]. Further, the Autoreactivity (Athena) with Histone autoantigen [30] turned out to be 5; with Jo 1 autoantigen [31], 2; with RNP autoantigen [32], 3; with SSA autoantigen [33] it was 4; in the experiment with SSB autoantigen [34], 4; with Scl 70 autoantigen [35], 2. Moreover, the Autoreactivity (Athena) with Sm autoantigen [36] turned out to be 2; with centromere B autoantigen [37] it was 4.

Take 1b12 original (antibody): the Reactivity in Luminex Units (Luminex Units) in [46] was found to be 5110.

For the substance 2F5 (antibody), the Reactivity in Luminex Units (Luminex Units) is 32700 in the experiment with HIV-1 Env gp41 (HIV-1) and 9240 in [46].

Values taken from US20120321699A1.
